The source of these data is PMC3974781.

The target of this assay is HA-ASIC2a (mouse acid-sensing ion channel 2a, HA epitope-tagged) (mouse) (UniProt Q925H0).
Sequence of UniProt Q925H0 (Q925H0 whole entry): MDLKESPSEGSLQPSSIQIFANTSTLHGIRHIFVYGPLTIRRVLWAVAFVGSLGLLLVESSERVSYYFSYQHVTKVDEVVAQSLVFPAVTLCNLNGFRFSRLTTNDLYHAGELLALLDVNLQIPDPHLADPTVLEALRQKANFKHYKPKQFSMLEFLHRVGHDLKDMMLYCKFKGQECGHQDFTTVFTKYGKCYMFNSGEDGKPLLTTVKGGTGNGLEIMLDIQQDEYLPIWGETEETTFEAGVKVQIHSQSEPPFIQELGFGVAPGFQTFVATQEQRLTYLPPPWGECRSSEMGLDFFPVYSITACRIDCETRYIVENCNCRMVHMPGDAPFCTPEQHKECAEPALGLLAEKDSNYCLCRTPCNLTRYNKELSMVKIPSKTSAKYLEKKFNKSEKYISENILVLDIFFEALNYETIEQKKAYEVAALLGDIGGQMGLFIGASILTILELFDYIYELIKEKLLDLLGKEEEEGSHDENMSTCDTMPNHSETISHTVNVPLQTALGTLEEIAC

B1: ASIC1a (mouse acid-sensing ion channel 1a) (natural protein)
chain: MELKTEEEEVGGVQPVSIQAFASSSTLHGLAHIFSYERLSLKRALWALCFLGSLAVLLCVCTERVQYYFCYHHVTKLDEVAASQLTFPAVTLCNLNEFRFSQVSKNDLYHAGELLALLNNRYEIPDTQMADEKQLEILQDKANFRSFKPKPFNMREFYDRAGHDIRDMLLSCHFRGEACSAEDFKVVFTRYGKCYTFNSGQDGRPRLKTMKGGTGNGLEIMLDIQQDEYLPVWGETDETSFEAGIKVQIHSQDEPPFIDQLGFGVAPGFQTFVSCQEQRLIYLPSPWGTCNAVTMDSDFFDSYSITACRIDCETRYLVENCNCRMVHMPGDAPYCTPEQYKECADPALDFLVEKDQEYCVCEMPCNLTRYGKELSMVKIPSKASAKYLAKKFNKSEQYIGENILVLDIFFEVLNYETIEQKKAYEIAGLLGDIGGQMGLFIGASILTVLELFDYAYEVIKHRLCRRGKCQKEAKRNSADKGVALSLDDVKRHNPCESLRGHPAGMTYAANILPHHPARGTFEDFTC
Molecule B1 showed a pH50 of activation of acid-evoked currents in CHO cells coexpressing ASIC1a and ASIC2a (whole-cell patch clamp); ASIC1a alone pH50 = 6.7, ASIC2a alone pH50 = 4.0 of 5.4 pH.
